Assay results published in PMC4266991.

Target: SUFU (UniProt Q9UMX1)
Assay: co-immunoprecipitation, immunoblot
Conditions: reference: wild-type GLI2, CCL21; sites S149

binding against the reference: stronger
Substance: GLI2 (from UniProt P10070) GLI2 S149A, CCL21
